In article PMC3448853:

Experiments:
Experiment in all cases: SEC
[1] = target: aglycosylated Fc5 (E382V/M428I) variant of human IgG1 Fc (human)
[2] = target: aglycosylated human IgG1 Fc (wild type), E. coli expressed (human)
[3] = target: glycosylated human Fc (wild type), Bethyl Laboratories (human)

For “aglycosylated Fc5 (E382V/M428I) variant of human IgG1 Fc (domain or fragment)”, the stoichiometry N [1] was 2.
With “aglycosylated human IgG1 Fc (wild type), E. coli expressed (domain or fragment)” the stoichiometry N [2] was 2.
“glycosylated human Fc (wild type), Bethyl Laboratories (domain or fragment)” showed a stoichiometry N [3] of 2.
